Reference: patent US20080089837A1

Biological target: PDGFR-alpha (platelet derived growth factor receptor-alpha) on human osteosarcoma MG-63 cells (human) (UniProt P16234)
Assay: FACS titration on MG-63 cells, nonlinear fit of geometric mean fluorescence; goat anti-mouse detection; 95% CI ±99 pM

Chain of PDGFR-alpha (platelet derived growth factor receptor-alpha) on human osteosarcoma MG-63 cells (human) (P16234 24-1089): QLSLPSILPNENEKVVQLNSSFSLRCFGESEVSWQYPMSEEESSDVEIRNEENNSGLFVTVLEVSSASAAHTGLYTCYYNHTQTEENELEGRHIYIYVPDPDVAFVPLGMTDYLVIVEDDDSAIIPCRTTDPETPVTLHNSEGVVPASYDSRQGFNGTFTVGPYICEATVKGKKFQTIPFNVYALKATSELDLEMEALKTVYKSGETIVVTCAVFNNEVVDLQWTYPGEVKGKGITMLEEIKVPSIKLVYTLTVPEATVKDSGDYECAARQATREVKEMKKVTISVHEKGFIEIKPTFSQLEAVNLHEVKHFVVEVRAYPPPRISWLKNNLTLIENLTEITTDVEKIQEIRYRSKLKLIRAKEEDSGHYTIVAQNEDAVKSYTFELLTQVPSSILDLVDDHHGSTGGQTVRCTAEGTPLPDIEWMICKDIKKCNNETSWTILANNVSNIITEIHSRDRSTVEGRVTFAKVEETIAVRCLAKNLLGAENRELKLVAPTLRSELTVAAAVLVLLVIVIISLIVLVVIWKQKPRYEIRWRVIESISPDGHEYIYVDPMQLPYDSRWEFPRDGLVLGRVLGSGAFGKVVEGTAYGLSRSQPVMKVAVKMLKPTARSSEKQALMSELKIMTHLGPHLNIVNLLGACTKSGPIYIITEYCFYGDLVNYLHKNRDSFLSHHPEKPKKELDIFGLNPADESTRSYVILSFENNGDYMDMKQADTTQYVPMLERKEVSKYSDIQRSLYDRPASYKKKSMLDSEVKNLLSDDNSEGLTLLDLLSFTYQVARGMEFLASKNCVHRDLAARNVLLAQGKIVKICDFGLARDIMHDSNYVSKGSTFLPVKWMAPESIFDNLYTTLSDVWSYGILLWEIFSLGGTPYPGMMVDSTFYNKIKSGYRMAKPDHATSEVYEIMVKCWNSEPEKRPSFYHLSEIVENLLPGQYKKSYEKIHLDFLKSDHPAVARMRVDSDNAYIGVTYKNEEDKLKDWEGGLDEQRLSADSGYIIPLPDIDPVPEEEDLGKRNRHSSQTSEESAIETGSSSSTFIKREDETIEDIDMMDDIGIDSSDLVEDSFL

**Q.** How did the Kd turn out when CD140a control antibody was run?
**A.** The Kd was 0.146 nM.
